Experimental findings from patent US20100029568A1, “TIGHTER-BINDING C-PEPTIDE INHIBITORS OF HIV-1 ENTRY” (priority 2007, published 2010) are described below.

For assay [1], the target named is Res 4 (SDTV) Env from HIV-1 strain HXB2 (HIV-1 strain HXB2) (UniProt P04578). Kind of assay: cell-based or functional assay.
The target in assay [2] is wild type Env (gp120/gp41) from HIV-1 strain HXB2 (HIV-1 strain HXB2) (UniProt P04578). The assay can be described thus: cell-based or functional assay.

For the substance T20 (peptide), the IC50, nM; inhibitory potency against pseudotyped HIV-1 in assay [1] worked out at 900 nM; in assay [2], 2.3 nM.
